{
  "source": "patent US7109015B2",
  "about": "“Removal of N-terminal methionine from proteins by engineered methionine aminopeptidase” (Academia Sinica, priority 2004, dated 2006)",
  "molecules": {"B1": {"name": "MetAP-*TG (protein)", "chain": "AISIKTPEDIEKMRVAGRLAAEVLEMIEPYVKPGVSTGELDRICNDYIVNEQHAVSACLGYHGYPKSVCISINEVVCHGIPDDAKLLKDGDIVNIDVTVIKDGFHGDTSKMFIVGKPTIMGERLCRITQESLYLALRMVKPGINLREIGAAIQKFVEAEGFSVVREYCGHGIGRGFHEEPQVLHYDSRETNVVLKPGMTFTIEPTVNAGKKEIRTMKDGWTVKTKDRSLSAGYEHTIVVTDNGCEILTLRKDDTIPAIISHDE"}},
  "key": {"[1]": {"test_system": "synthetic oligopeptides", "type": "biochemical", "settings": "for Specific activity (unit/mg): 4 mM oligopeptide, pH 7.5, 37° C."}, "[2]": {"target": "RC-RNaseL1 (Escherichia coli, UniProt P0AE18, M206T/Q233G)", "settings": "solubility −", "excerpt": "(§1) The rpr (AF332139) gene encoding for the target protein, onconase, from Rana pipiens was tagged with NdeI and BamHI site at the 5′ and 3′ end, respectively, and inserted downstream of T7 promoter in the expression vector pET22b (Novagen) (Liao et al., 2003; Huang et al., 1998; Liao et al., 2000). The other target proteins were also cloned by the same method, including RC-RNase L1 (AF288642.2), RC-RNase 2 (AF242553), RC-RNase 3 (AF242554), RC-RNase 4 (AF242555), RC-RNase6 (AF242556) from Rana catesbeiana, CA150 (a transcription elongation regulator 1; NM_006706) and glutathione S-transferase (M14654).\n(§2) The Escherichia coli methionine aminopeptidase gene (Accession Number M 15106) or its mutant was fused with the T7 promoter by three steps of PCR and inserted into the same pET22b vector containing a target protein, as described above, through SacI and HindIII. […] The second PCR was performed using the PCR product from step 1 as 5′ megaprimer, oligonucleotide 3 (5′[…]3′; SEQ ID NO:4) as 3′ primer, and the E. coli MetAP gene (M15101) as template (Huang et al., 1998; Ben-Bassat et al., 1987). The third PCR was to amplify the second PCR product using oligonucleotide 1 and oligonucleotide 3 as primers. The genes encoding the target protein and E. coli MetAP have their own T7 RNA polymerase promoter, but they may be transcribed into the same RNA molecule for cotranslation because only one transcription terminator exists, downstream of the MetAP gene. Alternatively, the MetAP gene alone may be directly subcloned into vector pET29b through the SacI and HindIII site.\n(§3) The MetAP was expressed alone or co-expressed with a target protein, i.e., onconase and RC-RNaseL1, in E. coli BL21 (DE3) in the presence of 0.5 mM IPTG at 37° C.\n(§4) Proteins in the cell pellet or in the soluble fraction were separated by 13.3% SDS-PAGE and contact-transferred to ProBlott™ membrane (Applied Bioystems) in transfer buffer (10 mM Tris-HCl, pH 7.5, 50 mM NaCl, 2 mM EDTA, 0.5 mM 2-mercaptoethanol) overnight. The five N-terminal residues of the transferred protein were determined by Edman degradation. The percentage of Met removal was calculated by dividing the amount of proteins initiated with the penultimate residue with the amount of total proteins (including proteins initiated with the penultimate residue and unprocessed protein initiated with Met) after the first degradation cycle. In theory, this percentage should remain the same after each degradation cycle. Therefore, in order to avoid experimental variation, the same calculation was made from five consecutive degradation cycles, e.g., M, Q, N, W and L for onconase. The efficiency of Met removal is reported as the mean values of at least three cycles. The mass spectrum analysis was carried out as described previously (Liao et al., 2003)."}, "[3]": {"target": "RC-RNase6 (Escherichia coli, UniProt P0AE18, M206T/Q233G)", "settings": "substrate MQDWD (SEQ ID NO:12)-RC6; solubility −", "excerpt": "as §1, §2, §3, §4"}, "[4]": {"target": "CA150, a transcription elongation regulator 1 (Escherichia coli, UniProt P0AE18, M206T/Q233G)", "settings": "substrate MLAGA (SEQ ID NO:20)-CA150; solubility +", "excerpt": "as §1, §2, §3, §4"}, "[5]": {"target": "RC-RNase2 (Escherichia coli, UniProt P0AE18, M206T/Q233G)", "settings": "substrate MQNEW (SEQ ID NO:17)-RC2; solubility −", "excerpt": "as §1, §2, §3, §4"}, "[6]": {"target": "glutathione S-transferase (GST) (Escherichia coli, UniProt P0AE18, M206T/Q233G)", "settings": "substrate MQDIL (SEQ ID NO:21)-GST", "excerpt": "as §1, §2, §3, §4"}, "[7]": {"target": "RC-RNase3 (Escherichia coli, UniProt P0AE18, M206T/Q233G)", "settings": "substrate MQDWE (SEQ ID NO:11)-RC3; solubility −", "excerpt": "as §1, §2, §3, §4"}, "[8]": {"test_system": "RC-RNase4", "test": "In vivo Met removal, co-expression in E. coli, RC-RNase 4 substrate", "type": "cell-based, Rana catesbeiana", "settings": "solubility −"}, "[9]": {"settings": "substrate MQNWA (SEQ ID NO:18)-RCL1"}, "[10]": {"settings": "substrate MAAWA (SEQ ID NO:15)-RC4"}, "[11]": {"settings": "substrate MAPWA (SEQ ID NO:16)-RC4"}, "[12]": {"settings": "substrate MQAWA (SEQ ID NO:14)-RC4"}},
  "note": "Read-outs that look alike come from different tables or passages of the source. Marks after values point to notes of the source that are not given here.",
  "data": [
    {"molecule": "B1", "values": [
      {"measurement": "In vitro catalytic activity", "setting": "[1]; oligopeptides ranging from tetra- to dodecapeptides with Ala at the penultimate site", "result": "high catalytic activity"},
      {"measurement": "Specific activity (unit/mg)", "setting": "[1]; substrate MADY (SEQ ID NO:7)", "result": "72 ± 10", "unit": "unit/mg"},
      {"measurement": "Specific activity (unit/mg)", "setting": "[1]; substrate MADYLT (SEQ ID NO:8)", "result": "116 ± 4", "unit": "unit/mg"},
      {"measurement": "Specific activity (unit/mg)", "setting": "[1]; substrate MQDYLT (SEQ ID NO:9)", "result": "0.42 ± 0.02", "unit": "unit/mg"},
      {"measurement": "Specific activity (unit/mg)", "setting": "[1]; substrate […] (SEQ ID NO:5)", "result": "73 ± 15", "unit": "unit/mg"},
      {"measurement": "Specific activity (unit/mg)", "setting": "[1]; substrate […] (SEQ ID NO:6)", "result": "0.59 ± 0.07", "unit": "unit/mg"},
      {"measurement": "Catalytic activity (%): removal of N-terminal Met", "setting": "[2]; substrate MQDWA (SEQ ID NO:19)-RCL1", "result": 99, "unit": "%"},
      {"measurement": "Catalytic activity (%): percent of penultimate residue removed", "setting": "[2]; [9]", "result": 62, "unit": "%"},
      {"measurement": "Catalytic activity (%): removal of N-terminal Met", "setting": "[2]; [9]", "result": 96, "unit": "%"},
      {"measurement": "Catalytic activity (%): removal of N-terminal Met", "setting": "[3]", "result": 82, "unit": "%"},
      {"measurement": "Catalytic activity (%): percent of penultimate residue removed", "setting": "[4]", "result": 71, "unit": "%"},
      {"measurement": "Catalytic activity (%): removal of N-terminal Met", "setting": "[4]", "result": 100, "unit": "%"},
      {"measurement": "Catalytic activity (%): percent of penultimate residue removed", "setting": "[5]", "result": 56, "unit": "%"},
      {"measurement": "Catalytic activity (%): removal of N-terminal Met", "setting": "[5]", "result": 80, "unit": "%"},
      {"measurement": "Catalytic activity (%): removal of N-terminal Met", "setting": "[6]; solubility +, same vector", "result": 87, "unit": "%"},
      {"measurement": "Catalytic activity (%): removal of N-terminal Met", "setting": "[6]; solubility +, target in pET22b co-transformed with MetAP in pET29b", "result": 71, "unit": "%"},
      {"measurement": "Catalytic activity (%): removal of N-terminal Met", "setting": "[6]; solubility −, same vector", "result": 85, "unit": "%"},
      {"measurement": "Catalytic activity (%): removal of N-terminal Met", "setting": "[6]; solubility −, target in pET22b co-transformed with MetAP in pET29b", "result": 70, "unit": "%"},
      {"measurement": "Catalytic activity (%): removal of N-terminal Met", "setting": "[7]", "result": 96, "unit": "%"},
      {"measurement": "Catalytic activity (%): percent of penultimate residue removed", "setting": "[8]; [10]", "result": 18, "unit": "%"},
      {"measurement": "Catalytic activity (%): removal of N-terminal Met", "setting": "[8]; [10]", "result": 100, "unit": "%"},
      {"measurement": "Catalytic activity (%): percent of penultimate residue removed", "setting": "[8]; [11]", "result": 63, "unit": "%"},
      {"measurement": "Catalytic activity (%): removal of N-terminal Met", "setting": "[8]; [11]", "result": 79, "unit": "%"},
      {"measurement": "Catalytic activity (%): percent of penultimate residue removed", "setting": "[8]; [12]", "result": "100 (100)^c %"},
      {"measurement": "Catalytic activity (%): removal of N-terminal Met", "setting": "[8]; [12]", "result": "100 (100)^c %"},
      {"measurement": "Catalytic activity (%): removal of N-terminal Met", "setting": "[8]; substrate MQDWA (SEQ ID NO:13)-RC4", "result": 93, "unit": "%"}
    ]}
  ]
}
